The test has as its target T1, Flag-myc-CAD (Homo sapiens (Human), UniProt Q13586 342-448).
T1 construct: also called Flag-tagged CAD; not shown: Flag and myc tags from the custom vector pDEST-pGWI-Flag-Myc-x
Kind of test: co-immunoprecipitation from HEK 293T cells. The method, then: Immunoprecipitation and Immunoblot Analysis. […] Lysates were spun at 12,000 rpm for 10 min, and the supernatant was incubated with anti-Flag M2 agarose beads (Sigma), or anti-myc or -HA antibody followed by IgG agarose beads (Pierce). Lysates and immunoprecipitates were subjected to SDS-PAGE, probed with HRP-conjugated secondary antibody and detected by enhanced chemiluminescence (Pierce).
STIM1-CAD BINDS TO THE N- AND C-TERMINI OF ORAI1. To identify regions of Orai1 important for activation by CAD, we characterized the binding of CAD to Orai1 using two approaches. First we expressed fusions of NubG with the N-terminus, the II-III cytoplasmic loop and the C-terminus of Orai1 in yeast together with different CAD-Cub-LV constructs. […] Based on the level of b-gal activity, CAD appears to interact with the Orai1 C-terminus with a higher affinity than with the N-terminus.

The record followed here is patent publication US20120165265A1 (published 2012).

T1 sequence (Q13586 342-448): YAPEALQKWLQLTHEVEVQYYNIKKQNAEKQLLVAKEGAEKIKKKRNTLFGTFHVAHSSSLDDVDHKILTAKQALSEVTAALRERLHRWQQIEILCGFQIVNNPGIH

B1: Orai1 1-70, expressed in HEK 293T cells (other)
chain: MHPEPAPPPSRSSPELPPSGGSTTSGSRRSRRRSGDGEPPGAPPPPPSAVTYPDWIGQSYSEVMSLNEHS
notes: not shown: The detection tag of the HEK construct (probably N-terminal YFP)
As to B1, the binding result is on record as “no binding”.
